Experimental data taken from article PMC8221791.

Experiments:
[1] = target: recombinant Endothelial Protein C Receptor (EPCR) (UniProt Q9UNN8); assay: static adhesion assay of infected erythrocytes on spots of recombinant protein; recombinant receptor adsorbed as 20 ul spots on petri dishes in PBS overnight at 4°C (two-fold dilutions 10 to 0.31 ug/ml), blocked with Albumax; Percoll-purified trophozoite-stage infected HbAA RBCs, 4x10^6 cells per ml, 1 h at 37°C; washed, fixed, Giemsa-stained, counted per image; four-parameter log-logistic fit
[2] = target: recombinant Endothelial Protein C Receptor (EPCR) (UniProt Q9UNN8); assay: static adhesion assay of infected erythrocytes on spots of recombinant protein; recombinant receptor adsorbed as 20 ul spots on petri dishes in PBS overnight at 4°C (two-fold dilutions 10 to 0.31 ug/ml), blocked with Albumax; Percoll-purified trophozoite-stage infected HbAS (sickle-trait) RBCs, 4x10^6 cells per ml, 1 h at 37°C; washed, fixed, Giemsa-stained, counted per image; four-parameter log-logistic fit
recombinant CD36 [3] = target: recombinant CD36 (UniProt P16671); assay: static adhesion assay of infected erythrocytes on spots of recombinant protein; recombinant receptor adsorbed as 20 ul spots on petri dishes in PBS overnight at 4°C (two-fold dilutions 10 to 0.31 ug/ml), blocked with Albumax; Percoll-purified trophozoite-stage infected HbAA RBCs, 4x10^6 cells per ml, 1 h at 37°C; washed, fixed, Giemsa-stained, counted per image; four-parameter log-logistic fit
recombinant CD36 [4] = target: recombinant CD36 (UniProt P16671); assay: static adhesion assay of infected erythrocytes on spots of recombinant protein; recombinant receptor adsorbed as 20 ul spots on petri dishes in PBS overnight at 4°C (two-fold dilutions 10 to 0.31 ug/ml), blocked with Albumax; Percoll-purified trophozoite-stage infected HbAS (sickle-trait) RBCs, 4x10^6 cells per ml, 1 h at 37°C; washed, fixed, Giemsa-stained, counted per image; four-parameter log-logistic fit

Sequence of UniProt P16671 (P16671 whole entry): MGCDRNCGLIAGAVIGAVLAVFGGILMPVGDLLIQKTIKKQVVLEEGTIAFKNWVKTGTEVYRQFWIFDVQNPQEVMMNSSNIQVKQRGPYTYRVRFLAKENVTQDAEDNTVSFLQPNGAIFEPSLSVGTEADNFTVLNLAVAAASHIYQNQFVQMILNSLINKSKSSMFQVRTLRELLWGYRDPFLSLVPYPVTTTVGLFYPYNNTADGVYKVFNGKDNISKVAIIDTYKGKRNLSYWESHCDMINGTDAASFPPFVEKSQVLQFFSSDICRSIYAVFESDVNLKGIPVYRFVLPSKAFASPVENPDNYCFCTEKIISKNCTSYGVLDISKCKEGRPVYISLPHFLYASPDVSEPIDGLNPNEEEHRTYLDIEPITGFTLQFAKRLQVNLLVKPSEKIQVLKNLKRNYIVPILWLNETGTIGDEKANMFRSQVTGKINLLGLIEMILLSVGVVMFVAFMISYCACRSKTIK
Sequence of UniProt Q9UNN8 (Q9UNN8 18-210): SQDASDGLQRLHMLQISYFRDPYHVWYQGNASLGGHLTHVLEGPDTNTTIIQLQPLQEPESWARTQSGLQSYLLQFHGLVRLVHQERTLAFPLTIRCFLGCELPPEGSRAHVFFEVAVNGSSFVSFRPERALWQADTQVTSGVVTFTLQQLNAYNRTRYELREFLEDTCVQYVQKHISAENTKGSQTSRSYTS

| Substance | EPCR spot concentration at estimated 50% adhesion [1] [µg/mL] | EPCR spot concentration at estimated 50% adhesion [2] [µg/mL] | CD36 spot concentration at estimated 50% adhesion (recombinant CD36 [3]) [µg/mL] | CD36 spot concentration at estimated 50% adhesion (recombinant CD36 [4]) [µg/mL] |
| --- | --- | --- | --- | --- |
| IT4var20 PfEMP1 (EPCR-binding P. falciparum Erythrocyte Membrane Protein 1 variant of strain IT4) (natural protein) | 0.3 | 0.5 | – | – |
| IT4var30 PfEMP1 (CD36-binding P. falciparum Erythrocyte Membrane Protein 1 variant of strain IT4) (natural protein) | – | – | 2.5 | 2.7 |
